The values that follow come from patent US20200155571A1, “Topically Active Steroids for Use in Radiation and Chemotherapeutics Injury” (Soligenix, Inc., priority 2008, published 2020).

The conditions of data set [1]: 17-BMP after BDP administration, estimated; cited from earlier work.
For data set [2] the following is noted: rats, cited from earlier work.
The conditions of data set [3]: cited from earlier work.
In another data set the target is T1, glucocorticoid receptor (Homo sapiens, UniProt P04150).
T1 sequence (P04150 1-777): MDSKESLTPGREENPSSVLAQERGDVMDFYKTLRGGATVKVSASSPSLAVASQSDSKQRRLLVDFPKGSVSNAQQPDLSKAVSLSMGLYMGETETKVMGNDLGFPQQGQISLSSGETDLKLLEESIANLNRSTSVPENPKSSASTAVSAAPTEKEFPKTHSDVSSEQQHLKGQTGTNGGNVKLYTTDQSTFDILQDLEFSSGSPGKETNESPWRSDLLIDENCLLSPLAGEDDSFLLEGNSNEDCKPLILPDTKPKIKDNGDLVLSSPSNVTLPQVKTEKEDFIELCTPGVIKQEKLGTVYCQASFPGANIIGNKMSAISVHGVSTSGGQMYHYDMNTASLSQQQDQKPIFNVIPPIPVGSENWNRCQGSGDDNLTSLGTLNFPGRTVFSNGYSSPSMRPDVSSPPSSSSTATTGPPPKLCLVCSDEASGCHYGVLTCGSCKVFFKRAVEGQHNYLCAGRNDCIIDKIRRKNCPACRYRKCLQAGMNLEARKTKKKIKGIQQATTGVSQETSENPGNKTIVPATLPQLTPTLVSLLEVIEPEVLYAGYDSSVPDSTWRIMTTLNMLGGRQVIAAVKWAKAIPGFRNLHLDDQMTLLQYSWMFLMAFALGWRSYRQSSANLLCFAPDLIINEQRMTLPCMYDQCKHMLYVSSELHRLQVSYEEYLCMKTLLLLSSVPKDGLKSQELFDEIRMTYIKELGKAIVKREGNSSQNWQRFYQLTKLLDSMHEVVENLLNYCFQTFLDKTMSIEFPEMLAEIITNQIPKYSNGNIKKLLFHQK
The note with it: as fraction of the binding affinity of dexamethasone; cited from earlier work.

The subject of data set [4] is dogs given high dose total body irradiation (TBI). Kind of data set: Survival of dogs after high dose TBI (GI radiation syndrome) with autologous marrow and supportive care. The format is in vivo, dog. As to conditions: TBI dose giving >80% lethality; monitored up to 30 days; KGF 100 μg/kg/day iv or BDP 4 mg/day from 2 hours after TBI until GI recovery. From the text:
The dog is a particularly suitable animal model for studying radiations damage to epithelial tissue. […] To evaluate the response to TBI given at the high dose rate of 0.4 Gy/min or 0.7 Gy/min, treatment groups were given single-fraction 6, 7, 8 or 10 Gy TBI and received previously cryopreserved autologous marrow infusion upon completion of the TBI and standard supportive care. At doses of TBI below 8 Gy, all dogs survived. After 8 Gy TBI, 5 of 9 dogs died and after 10 Gy TBI, 9 of 9 dogs died from GI radiation syndrome. All deaths occurred between days 4 to day 6 after 10 Gy TBI. All deaths were attributable due to GI radiation toxicity with severe gut hemorrhage and intestinal crypt damage, as well as denudation of gut epithelium and focal necrosis in the intestines. Despite antibiotic treatment, blood cultures obtained near the time of death were positive for gram negative organisms in 4 dogs, consistent with entry of pathogens through the GI tract. […]
Dogs were monitored for survival up to 30 days after initiation of TBI (primary endpoint of the experiment). […] Dogs were also followed with daily CBCs until recovery and assessed for immune function recovery. […]

Data set [5] deals with dogs given total body irradiation (TBI). Kind of data set: Survival and hematopoietic recovery of dogs after TBI with cytokine treatment. The format is in vivo, dog. The procedure:
Supportive care consisted of the following: (a) intravenous antibiotics, ampicillin and amikacin and oral nonreabsorbable polymixin/neomycin administered without change in drug regimen until recovery of absolute neutrophil count (ANC)>1000/μL; (b) transfusions with irradiated whole blood (50 mL blood per transfusion) for platelet counts below 10,000/μL; and (c) subcutaneous fluids 20 ml/kg given daily for the first 5 days after TBI.
After TBI exposure, all dogs were treated with an oral fluoroquinolone, enrofloxacin. Core body temperature was measured at least twice daily. If fever developed or when ANC falls below <100/μL, dogs are empirically treated with the combination of intravenous third-generation cephalosporin (ceftazidime) and the aminoglycoside amikacin. Blood cultures are obtained when dogs develop fever and antibiotic treatment is adjusted based on blood culture results. If blood culture negative neutropenic fever persists for 48 hours, or if clinical condition objectively worsens, additional empiric antibiotic treatment with metronidazole and vancomycin is added. Although the new antibiotic regimen is more complicated compared with the historical treatment, it reflects improved broad spectrum coverage against gram negative, gram positive and anaerobic pathogens. Furthermore, blood transfusion support is more intensive now with larger volume of whole blood transfusion, based on body weight with 10-15 mL blood/kg/transfusion. The use of intravenous fluid support (10-30 mL/kg/day Lactated Ringers solution) is extended for at least 14 additional days until there is full recovery of oral food intake.
New supportive care measures have shown a significant improvement in survival after TBI. Following 4 Gy TBI (0.07 Gy/min, Varian Clinac 4/80 linear accelerator source), 4 of 4 dogs survived and recovered hematopoiesis with a median time to ANC and platelet recovery of 27 and 41 days, respectively. ANC recovery was defined as the first day of sustained neutrophil counts >500/μL and platelet recovery was defined as the first day of transfusion-independent sustained recovery of >40,000/μL. After 5 Gy TBI, 3 of 6 dogs survived with supportive care only. Deaths occurred at days 14, 15 and 21, respectively, after TBI and were due to neutropenic sepsis or pneumonia and not from the GI radiation syndrome. Among surviving dogs, the median time to ANC and platelet recovery was 29 and 44 days, respectively. After 6 Gy TBI, 5 of 6 dogs survived given supportive care only. One death occurred on day 22 due to neutropenic sepsis. The median time to ANC and platelet recovery was 34 and 74 days, respectively. After 7 Gy TBI and supportive care only, 5 of 6 dogs survived, with one death on day 22 due to neutropenic sepsis. […] As of Apr. 18, 2007, the remaining three dogs in this cohort remain transfusion-dependent at 66 to 95 days after TBI. […] Because of the improved survival of dogs after TBI given optimal supportive care in the current AI-066498 studies, we have not yet reached the 99% lethal dose of TBI threshold.
Although supportive care without cytokine support results in improved survival, cytokine treatment given after TBI aimed at recovery of the hematopoietic system also improves outcome and decreased the need for prolonged, intensive (and expensive) supportive care. Historical results in the dog model by our research group included studies which established that both recombinant canine (rc) and recombinant human (rh) G-CSF given after an otherwise lethal dose of 4 Gy TBI prevented death from radiation induced cytopenia. In the 1980's and early 1990's, after 4 Gy TBI and supportive care alone, only 1 of 28 dogs survived with recovery of hematopoiesis. In contrast, when G-CSF was given daily for 21 days after 4 Gy TBI, 8 of 10 dogs survived. […] These studies helped to establish the current clinical guidelines for the treatment of victims of radiation accidents. […]

The next data set relates to non-irradiated dogs. Kind of data set: rhKGF in non-irradiated dogs, necropsy of gut. The class given is in vivo, dog. As to conditions: rhKGF 100 μg/kg/day for 14 and 21 days. The procedure: Three non-irradiated dogs were given rhKGF 100 μg/kg/day for 7, 14 and 21 days, respectively. Twenty-four hours after the last dose of KGF, dogs were euthanized and underwent complete necropsy.

For data set [6], the system named is oral mucositis after high-dose radiation. The note with it: cited from earlier work.

Some results are limits rather than exact numbers.

Consider `CCC(=O)O[C@]1(C(=O)CO)[C@@H](C)C[C@H]2[C@@H]3CCC4=CC(=O)C=C[C@]4(C)[C@@]3(Cl)[C@@H](O)C[C@@]21C` [17-BMP, 17-beclomethasone mono-propionate], for which the absolute oral bioavailability in data set [1] is 21-41%. The “presence in plasma following oral administration of 3H-BDP” value in data set [2] is “found in the plasma”. The “half-life in simulated intestinal fluid” value in data set [3] is 720 min.
As for `CCC(=O)OCC(=O)[C@@]1(O)[C@@H](C)C[C@H]2[C@@H]3CCC4=CC(=O)C=C[C@]4(C)[C@@]3(Cl)[C@@H](O)C[C@@]21C` [21-BMP], the “glucocorticoid receptor binding affinity, in words” value at glucocorticoid receptor is on record as “no apparent affinity”.
For beclomethasone 17,21-dipropionate [BDP], the “half-life of unchanged BDP in plasma” value in data set [2] (intravenous administration of 3H-BDP) was 3 to 4 min. In addition, in data set [2], the “presence in plasma following oral administration of 3H-BDP” value is on record as “not detected”. Also, the “half-life in simulated intestinal fluid” value in data set [3] is 2.1 min. In addition, the “survival after TBI” value in data set [4] was “greater than 70%”.

B1: G-CSF: cytokine granulocyte colony stimulating factor, recombinant canine or human (protein, UniProt P09919 31-207, looked up)
Granulocyte …: TPLGPASSLPQSFLLKCLEQVRKIQGDGAALQEKLVSECATYKLCHPEELVLLGHSLGIPWAPLSSCPSQALQLAGCLSQLHSGLFLYQGLLQALEGISPELGPTLDTLQLDVADFATTIWQQMEELGMAPALQPTQGAMPAFASAFQRRAGGVLVASHLQSFLEVSYRVLRHLAQP
Take B1: the survival is 8 of 10 in data set [5] (4 Gy TBI, G-CSF daily for 21 days, historical results, supportive care alone 1 of 28); 6 of 6 in data set [5] (5 Gy TBI, 10 μg/kg/day starting 2 hours after irradiation, new supportive care); 3 of 10 in data set [5] (5 Gy TBI, G-CSF, historical results); 5 of 6 in data set [5] (6 Gy TBI, G-CSF 10 μg/kg/day, FL 100 μg/kg/day). Further, the “median time to ANC recovery” value in data set [5] (5 Gy TBI, ANC >500/μL) is on record as 20 days; in data set [5] (6 Gy TBI) it was 26 days. The “median time to platelet recovery” value is listed as 44 days in data set [5] (5 Gy TBI, platelets >40,000/μL) and 61 days in data set [5] (6 Gy TBI).

B2: KGF: keratinocyte growth factor, recombinant human; binds the KGF receptor on epithelial tissues (protein, UniProt P21781 32-194, looked up)
Fibroblast growth factor 7: CNDMTPEQMATNVNCSSPERHTRSYDYMEGGDIRVRRLFCRTQWYLRIDKRGKVKGTQEMKNNYNIMEIRTVAVGIVAIKGVESEFYLAMNKEGKLYAKKECNEDCNFKELILENHYNTYASAKWTHNGGEMFVALNQKGIPVRGKKTKKEQKTAHFLPMAIT
For the molecule B2, in the data set with non-irradiated dogs, the “effect on Peyer's patches in the ileum” value is “dramatic increase in the size and cellularity of Peyer's patches”; the “effect on villi in the jejunum” value is “dramatic increase in size of villi”. For the same molecule, the duration of mucositis in data set [6] (rhKGF 60 μg/kg/day for 3 days prior to 12 Gy fractionated TBI and 3 days after autologous PBSC infusion, placebo 10.4 days, p<0.001) is given as 3.4 days. The “incidence of febrile neutropenia” value in data set [6] (same trial, placebo 46%) is on record as 26%. Besides, the “mean days of febrile neutropenia” value in data set [6] (same trial, placebo 4.6 days) is listed as 2.6 days. Further, the “survival after TBI” value in data set [4] was at least 70%.
